Source: article PMC4051120, “Drastic changes in conformational dynamics of the antiterminator M2-1 regulate transcription efficiency in Pneumovirinae”

What was measured:
HMPV M2-1 [1] = biological target: T1, HMPV M2-1 (Human metapneumovirus strain NL1-00 (A1), UniProt Q8QN58 1-187); assay: SAXS titration; Zn2+ (zinc finger intact); 150 mM NaCl, 500 mM NDSB-201; Rg increase, aggregation; SAXS: 20 mM Tris pH 7.5, 150 mM NaCl, 500 mM NDSB-201, +/- 5 mM EDTA, ~0.2 mg/ml protein; TSA: 50 mM HEPES pH 7.5, 150 mM NaCl, 20-99 C; crystals: 28% PEG MME 2000, 0.1 M bis-Tris pH 6.5, 20 C; conditions: protein: recombinant; tags: N-terminal His6-3C, optionally removed by 3C protease; chain copies: 4
HMPV M2-1 [2] = biological target: T1, HMPV M2-1; assay: SAXS titration; Zn2+ (zinc finger intact); 150 mM NaCl, 500 mM NDSB-201; closed conformation induced, Rg up to ~8 nm, aggregation; SAXS: 20 mM Tris pH 7.5, 150 mM NaCl, 500 mM NDSB-201, +/- 5 mM EDTA, ~0.2 mg/ml protein; TSA: 50 mM HEPES pH 7.5, 150 mM NaCl, 20-99 C; crystals: 28% PEG MME 2000, 0.1 M bis-Tris pH 6.5, 20 C; conditions: protein: recombinant; tags: N-terminal His6-3C, optionally removed by 3C protease; chain copies: 4

Row | Binder | binding result (HMPV M2-1 [1]) | binding result (HMPV M2-1 [2])
1 | ACGCGAAAAAAU (ssRNA) [leader RNA 1-12 (positive sense)] | binds | –
2 | AGUUAAUUAAAAA (ssRNA) [F gene end RNA (positive sense)] | – | binds
